In test [1] the target is SC4226618 (Human immunodeficiency virus 1).
In test [2] the target is Env of HIV-1 strain YU2.DG (HIV-1).
The target of test [3] is Tro11 (Human immunodeficiency virus 1).

“chimeric IgG: 8ANC195 HC paired with the LC from 3BNC117 (antibody)”: the IC50 (fold change over 8ANC195 IgG), pseudovirus neutralization [panel B] came to 32 fold in test [1], 12 fold in test [2] and 17 fold in test [3].

The values above are taken from US20180171001A1.
